Results reported in article PMC7083883, “The cryo-EM structure of the SNX–BAR Mvp1 tetramer” (Nature Communications, 2020).

T1: Mvp1 (Saccharomyces cerevisiae, UniProt P40959)
T1 construct: full-length, codons 1-511; E. coli; N-terminal His6-thrombin fusion or C-terminal MBP fusion cut off with PreScission; tetramer
T1 sequence (P40959 1-511): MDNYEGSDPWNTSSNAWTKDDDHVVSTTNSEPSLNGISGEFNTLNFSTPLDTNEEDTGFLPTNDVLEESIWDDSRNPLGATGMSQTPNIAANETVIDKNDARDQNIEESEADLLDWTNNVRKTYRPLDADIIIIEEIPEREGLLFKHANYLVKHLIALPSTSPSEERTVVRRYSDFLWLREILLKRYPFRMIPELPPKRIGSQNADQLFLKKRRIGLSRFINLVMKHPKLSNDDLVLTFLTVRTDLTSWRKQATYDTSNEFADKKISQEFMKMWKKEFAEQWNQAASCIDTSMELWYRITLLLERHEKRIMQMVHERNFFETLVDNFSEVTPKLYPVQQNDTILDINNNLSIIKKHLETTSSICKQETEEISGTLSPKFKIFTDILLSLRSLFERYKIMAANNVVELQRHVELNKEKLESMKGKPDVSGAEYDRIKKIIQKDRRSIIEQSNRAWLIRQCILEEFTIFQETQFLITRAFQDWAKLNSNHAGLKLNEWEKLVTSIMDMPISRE


Key:
Mvp1 = molecular target: T1, Mvp1; assay: liposome sedimentation, SDS-PAGE; format: binding; settings: 5% PI3P in 95% DOPS liposomes (100 nm, 0.1 mg/ml); 1.2 µM protein; 20 mM Tris pH 7.5, 250 mM NaCl; 21 °C; DOPS-only liposomes as control
[1] = molecular target: Mvp1 with an engineered PreScission site after residue 99, after cleavage (N-terminal sequence removed) (S. cerevisiae) (UniProt P40959); assay: SEC-MALS; Superdex 200 10/300 GL, 20 mM TRIS/Cl pH 7.4, 250 mM NaCl unless stated (full-length Mvp1 also at 50 and 150 mM NaCl), 1.93 mM beta-mercaptoethanol; 500 ul of 20-21.2 uM protein injected (14 uM for Mvp1 Δ2-78); 0.3 ml/min
[2] = molecular target: the molecule itself; assay: as above
[3] = molecular target: the molecule itself; assay: cryo-EM structure; 2d and 3d classification of single particles of Mvp1 Mut1, ~5 uM protein, intermediate resolution (~7.7-8.2 Å)

Molecule | stoichiometry N [2] | other results
CCCCCCCC/C=C\CCCCCCCC(=O)OC[C@H](COP(=O)(O)O[C@@H]1[C@H](O)[C@H](OP(=O)(O)O)[C@@H](O)[C@H](O)[C@H]1O)OC(=O)CCCCCCC/C=C\CCCCCCCC [PI3P] |  | liposome sedimentation, SDS-PAGE (Mvp1): purified Mvp1, like SNX8 and several other SNX–BARs, bound to liposomes containing PI3P
Mvp1 with an engineered PreScission site after residue 99, after cleavage (N-terminal sequence removed) (from UniProt P40959 100-511) (domain or fragment) |  | stoichiometry N [1]: 2
Mvp1 Δ2-100 (domain or fragment, S. cerevisiae, UniProt P40959 1-511, looked up, Mvp1, S. cerevisiae, codons 1-511 lacking residues 2-100; The purification told for this construct is that of the C-terminal MBP fusion, cleaved with PreScission; residues of the cleavage site probably remain at the C-terminus (surmised); also called Mvp1 lacking its N-terminus; source: E. coli BL21-Codon Plus(DE3)-RIPL, purified (amylose resin, anion exchange, SEC, PreScission cleavage, Superdex …)) MARDQNIEESEADLLDWTNNVRKTYRPLDADIIIIEEIPEREGLLFKHANYLVKHLIALPSTSPSEERTVVRRYSDFLWLREILLKRYPFRMIPELPPKRIGSQNADQLFLKKRRIGLSRFINLVMKHPKLSNDDLVLTFLTVRTDLTSWRKQATYDTSNEFADKKISQEFMKMWKKEFAEQWNQAASCIDTSMELWYRITLLLERHEKRIMQMVHERNFFETLVDNFSEVTPKLYPVQQNDTILDINNNLSIIKKHLETTSSICKQETEEISGTLSPKFKIFTDILLSLRSLFERYKIMAANNVVELQRHVELNKEKLESMKGKPDVSGAEYDRIKKIIQKDRRSIIEQSNRAWLIRQCILEEFTIFQETQFLITRAFQDWAKLNSNHAGLKLNEWEKLVTSIMDMPISRE | 2 | 
Mvp1 Δ2-78 (domain or fragment, S. cerevisiae, UniProt P40959 1-511, looked up, source: E. coli BL21-Codon Plus(DE3)-RIPL, purified; not shown: His6 (pET-15b construct); MBP (pMW-variant construct; alternative to the His6 construct), C-terminal, cleaved) MGATGMSQTPNIAANETVIDKNDARDQNIEESEADLLDWTNNVRKTYRPLDADIIIIEEIPEREGLLFKHANYLVKHLIALPSTSPSEERTVVRRYSDFLWLREILLKRYPFRMIPELPPKRIGSQNADQLFLKKRRIGLSRFINLVMKHPKLSNDDLVLTFLTVRTDLTSWRKQATYDTSNEFADKKISQEFMKMWKKEFAEQWNQAASCIDTSMELWYRITLLLERHEKRIMQMVHERNFFETLVDNFSEVTPKLYPVQQNDTILDINNNLSIIKKHLETTSSICKQETEEISGTLSPKFKIFTDILLSLRSLFERYKIMAANNVVELQRHVELNKEKLESMKGKPDVSGAEYDRIKKIIQKDRRSIIEQSNRAWLIRQCILEEFTIFQETQFLITRAFQDWAKLNSNHAGLKLNEWEKLVTSIMDMPISRE | 2 | 
Full-length Mvp1 (codons 1-511) (natural protein, S. cerevisiae, UniProt P40959 1-511, looked up, Mvp1, S. cerevisiae sorting nexin with PX and BAR domains, codons 1-511, amplified from genomic DNA of W303A/alpha diploids; Two purification strategies: N-terminal His6 fusion with thrombin site (no cleavage described) or C-terminal MBP fusion cleaved with PreScission; also called wild type; SNX-BAR Mvp1; source: E. coli BL21-Codon Plus(DE3)-RIPL, purified (Ni-IDA or amylose resin, anion …)) MDNYEGSDPWNTSSNAWTKDDDHVVSTTNSEPSLNGISGEFNTLNFSTPLDTNEEDTGFLPTNDVLEESIWDDSRNPLGATGMSQTPNIAANETVIDKNDARDQNIEESEADLLDWTNNVRKTYRPLDADIIIIEEIPEREGLLFKHANYLVKHLIALPSTSPSEERTVVRRYSDFLWLREILLKRYPFRMIPELPPKRIGSQNADQLFLKKRRIGLSRFINLVMKHPKLSNDDLVLTFLTVRTDLTSWRKQATYDTSNEFADKKISQEFMKMWKKEFAEQWNQAASCIDTSMELWYRITLLLERHEKRIMQMVHERNFFETLVDNFSEVTPKLYPVQQNDTILDINNNLSIIKKHLETTSSICKQETEEISGTLSPKFKIFTDILLSLRSLFERYKIMAANNVVELQRHVELNKEKLESMKGKPDVSGAEYDRIKKIIQKDRRSIIEQSNRAWLIRQCILEEFTIFQETQFLITRAFQDWAKLNSNHAGLKLNEWEKLVTSIMDMPISRE | 4 | 
Mvp1 198KRI→AAA (natural protein, S. cerevisiae, UniProt P40959 1-511, looked up, Mvp1, S. cerevisiae, codons 1-511 with residues 198-200 KRI changed to AAA in the PX PPII loop; also called Mut1; Mvp1 Mut1; source: E. coli BL21-Codon Plus(DE3)-RIPL, purified; not shown: His6 (pET-15b construct); MBP (pMW-variant construct; alternative to the His6 construct), C-terminal, cleaved) MDNYEGSDPWNTSSNAWTKDDDHVVSTTNSEPSLNGISGEFNTLNFSTPLDTNEEDTGFLPTNDVLEESIWDDSRNPLGATGMSQTPNIAANETVIDKNDARDQNIEESEADLLDWTNNVRKTYRPLDADIIIIEEIPEREGLLFKHANYLVKHLIALPSTSPSEERTVVRRYSDFLWLREILLKRYPFRMIPELPPAAAGSQNADQLFLKKRRIGLSRFINLVMKHPKLSNDDLVLTFLTVRTDLTSWRKQATYDTSNEFADKKISQEFMKMWKKEFAEQWNQAASCIDTSMELWYRITLLLERHEKRIMQMVHERNFFETLVDNFSEVTPKLYPVQQNDTILDINNNLSIIKKHLETTSSICKQETEEISGTLSPKFKIFTDILLSLRSLFERYKIMAANNVVELQRHVELNKEKLESMKGKPDVSGAEYDRIKKIIQKDRRSIIEQSNRAWLIRQCILEEFTIFQETQFLITRAFQDWAKLNSNHAGLKLNEWEKLVTSIMDMPISRE |  | stoichiometry N [3]: 2
